According to US20230340151A1 (Pfizer, published 2023):
Substitutions are numbered along the chain they refer to. Values belong to the binder of their own block, whether it stands above or below them.

What was measured:
[1] = biological target: T1, Murine GUCY2C-ECD cleaved (mouse, UniProt Q3UWA6 20-433); assay: SPR, anti-human IgG capture, 25 C
T1 sequence: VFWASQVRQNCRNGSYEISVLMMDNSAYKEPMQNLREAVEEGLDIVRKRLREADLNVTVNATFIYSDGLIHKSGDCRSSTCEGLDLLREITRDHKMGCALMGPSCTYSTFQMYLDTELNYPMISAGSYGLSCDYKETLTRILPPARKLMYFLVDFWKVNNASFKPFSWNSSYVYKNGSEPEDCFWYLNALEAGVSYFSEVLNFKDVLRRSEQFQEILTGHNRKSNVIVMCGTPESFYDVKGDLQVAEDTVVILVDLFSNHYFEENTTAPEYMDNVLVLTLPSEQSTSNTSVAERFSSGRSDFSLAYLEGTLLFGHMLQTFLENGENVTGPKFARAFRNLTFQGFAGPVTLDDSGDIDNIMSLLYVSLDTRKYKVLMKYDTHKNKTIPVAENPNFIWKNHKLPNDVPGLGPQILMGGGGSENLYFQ

[2] = biological target: T2, Cynomolgus GUCY2C-ECD Cleaved (cynomolgus, UniProt P25092 24-430 (human entry)); assay: SPR, anti-human IgG capture, 25 C
T2 construct: also called CyGUCY2C
T2 chain: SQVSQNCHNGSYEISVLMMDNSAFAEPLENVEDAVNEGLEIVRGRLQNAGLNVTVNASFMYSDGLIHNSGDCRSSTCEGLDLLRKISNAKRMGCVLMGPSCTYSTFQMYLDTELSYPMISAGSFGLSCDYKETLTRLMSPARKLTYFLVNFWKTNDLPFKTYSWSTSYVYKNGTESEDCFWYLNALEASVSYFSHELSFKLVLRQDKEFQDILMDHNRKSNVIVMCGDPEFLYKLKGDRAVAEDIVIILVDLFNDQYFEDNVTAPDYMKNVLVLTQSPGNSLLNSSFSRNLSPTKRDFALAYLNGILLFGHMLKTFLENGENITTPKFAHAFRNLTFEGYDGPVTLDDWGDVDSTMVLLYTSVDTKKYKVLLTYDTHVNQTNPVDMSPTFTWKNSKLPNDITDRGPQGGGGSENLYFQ

[3] = biological target: T3, Purified human GUCY2c ECD (recombinant, construct not stated) (human, UniProt P25092 24-430); assay: direct ELISA, coated GUCY2c ECD
T3 construct: also called recombinant human GUCY2c; recombinant GUCY2c protein
T3 sequence (P25092 24-430 limits assumed): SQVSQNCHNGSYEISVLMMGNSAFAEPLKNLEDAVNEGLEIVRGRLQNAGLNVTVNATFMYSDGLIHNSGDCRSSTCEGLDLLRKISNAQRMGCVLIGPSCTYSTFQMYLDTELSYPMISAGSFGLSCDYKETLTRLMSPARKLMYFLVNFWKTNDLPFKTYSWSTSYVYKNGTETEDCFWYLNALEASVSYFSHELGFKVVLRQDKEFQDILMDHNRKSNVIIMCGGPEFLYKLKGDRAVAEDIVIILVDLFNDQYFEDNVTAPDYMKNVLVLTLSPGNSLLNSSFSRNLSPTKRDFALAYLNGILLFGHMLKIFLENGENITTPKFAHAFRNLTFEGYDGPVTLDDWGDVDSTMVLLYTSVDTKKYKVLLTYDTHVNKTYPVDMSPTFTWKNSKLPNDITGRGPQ

[4] = biological target: T4, Human GUCY2C full length (SEQ ID NO: 224), recombinant protein (human, UniProt P25092 24-430, limits assumed); assay: SPR, anti-human IgG capture, 25 C
T4 construct: also called huGUCY2C; biotinylated human GUCY2c
T4 sequence (P25092 24-430 F281L limits assumed): as the sequence (P25092 24-430 limits assumed) above, with F258L counted along it

Human GUCY2C ECD-muIgG2a = biological target: T5, Human GUCY2C ECD-muIgG2a (human); assay: sandwich ELISA: CD3 epsilon-delta coated, GUCY2c ECD-mIgG2a Fc in solution
T5 construct: also called human GUCY2c ECD-mouse IgG2a Fc fusion protein; huGUCY2c-mIgG2a
T5 sequence (chain, as listed by the source limits assumed): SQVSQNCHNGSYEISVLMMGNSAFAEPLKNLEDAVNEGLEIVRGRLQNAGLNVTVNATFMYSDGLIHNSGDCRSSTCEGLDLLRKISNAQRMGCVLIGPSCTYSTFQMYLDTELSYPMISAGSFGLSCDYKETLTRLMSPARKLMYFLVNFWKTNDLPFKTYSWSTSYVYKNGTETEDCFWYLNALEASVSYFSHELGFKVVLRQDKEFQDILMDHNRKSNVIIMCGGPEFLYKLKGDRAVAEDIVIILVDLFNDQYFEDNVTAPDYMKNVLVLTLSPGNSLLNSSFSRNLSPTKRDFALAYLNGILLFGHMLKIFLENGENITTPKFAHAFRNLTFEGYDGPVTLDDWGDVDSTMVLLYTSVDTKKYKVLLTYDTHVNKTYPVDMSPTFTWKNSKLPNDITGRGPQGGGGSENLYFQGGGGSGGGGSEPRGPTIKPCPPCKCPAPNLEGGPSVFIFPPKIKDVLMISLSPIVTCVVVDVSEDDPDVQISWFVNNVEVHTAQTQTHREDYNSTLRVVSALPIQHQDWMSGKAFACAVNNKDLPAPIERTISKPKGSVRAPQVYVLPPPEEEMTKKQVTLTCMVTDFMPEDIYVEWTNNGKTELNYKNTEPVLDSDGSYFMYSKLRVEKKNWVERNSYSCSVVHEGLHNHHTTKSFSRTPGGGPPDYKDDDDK

[5] = biological target: T6, Cynomolgus CD3 epsilon-delta (cynomolgus); assay: SPR, printed anti-His capture, 25 C (Table 33D)
T6 chain: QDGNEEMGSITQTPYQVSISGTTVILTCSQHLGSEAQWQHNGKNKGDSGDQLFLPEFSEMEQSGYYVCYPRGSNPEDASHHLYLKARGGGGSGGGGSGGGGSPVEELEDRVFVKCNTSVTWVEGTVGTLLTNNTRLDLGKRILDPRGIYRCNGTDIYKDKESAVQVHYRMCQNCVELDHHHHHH

[6] = biological target: Human GUCY2c on tumor cells (T84, HT55) (human, UniProt P25092 24-1073); assay: cell-based or functional assay
Sequence of Human GUCY2c on tumor cells (T84, HT55) (P25092 24-1073 limits assumed): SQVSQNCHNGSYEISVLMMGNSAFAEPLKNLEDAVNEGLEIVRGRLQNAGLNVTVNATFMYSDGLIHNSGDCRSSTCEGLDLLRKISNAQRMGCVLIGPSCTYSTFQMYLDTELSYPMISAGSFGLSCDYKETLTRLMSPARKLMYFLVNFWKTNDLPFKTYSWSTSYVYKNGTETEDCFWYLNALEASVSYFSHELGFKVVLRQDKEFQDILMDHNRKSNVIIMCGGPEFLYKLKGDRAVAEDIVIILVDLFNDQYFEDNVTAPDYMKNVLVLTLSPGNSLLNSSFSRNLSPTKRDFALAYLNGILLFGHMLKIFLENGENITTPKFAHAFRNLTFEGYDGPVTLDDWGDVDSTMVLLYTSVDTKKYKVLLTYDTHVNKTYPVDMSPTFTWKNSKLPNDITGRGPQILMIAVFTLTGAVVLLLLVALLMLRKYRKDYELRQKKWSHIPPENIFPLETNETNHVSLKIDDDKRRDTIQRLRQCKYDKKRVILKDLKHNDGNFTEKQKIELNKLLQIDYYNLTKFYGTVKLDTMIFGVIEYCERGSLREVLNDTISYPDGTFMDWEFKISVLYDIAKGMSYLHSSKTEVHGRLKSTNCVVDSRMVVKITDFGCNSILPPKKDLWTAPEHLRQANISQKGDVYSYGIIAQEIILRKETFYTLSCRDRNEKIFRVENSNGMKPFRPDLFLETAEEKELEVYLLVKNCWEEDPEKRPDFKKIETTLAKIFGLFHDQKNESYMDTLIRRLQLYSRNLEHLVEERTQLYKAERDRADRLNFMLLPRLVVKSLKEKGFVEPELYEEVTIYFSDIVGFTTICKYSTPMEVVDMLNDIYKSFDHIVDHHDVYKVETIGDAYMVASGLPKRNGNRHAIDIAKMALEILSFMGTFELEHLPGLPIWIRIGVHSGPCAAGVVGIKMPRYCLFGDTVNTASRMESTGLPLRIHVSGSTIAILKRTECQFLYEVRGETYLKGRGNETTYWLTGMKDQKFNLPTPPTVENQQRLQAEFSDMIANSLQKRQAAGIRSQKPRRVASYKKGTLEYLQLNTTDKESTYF

Human CD3 epsilon-delta [7] = biological target: T7, Human CD3 epsilon-delta (human); assay: direct ELISA, coated CD3 epsilon-delta
T7 construct: Single-chain epsilon-linker-delta with His6; also called huCD3
T7 chain: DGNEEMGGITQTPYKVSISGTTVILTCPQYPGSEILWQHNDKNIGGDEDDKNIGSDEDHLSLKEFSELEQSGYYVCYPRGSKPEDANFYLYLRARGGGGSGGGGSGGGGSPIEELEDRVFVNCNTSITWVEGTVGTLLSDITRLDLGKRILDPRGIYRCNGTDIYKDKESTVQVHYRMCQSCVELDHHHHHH

Human CD3 epsilon-delta [8] = biological target: T7, Human CD3 epsilon-delta; assay: SPR, anti-human IgG capture, 25 C
[9] = biological target: T4, Human GUCY2C full length (SEQ ID NO: …); assay: SPR, GUCY2c directly immobilized, 25 C
[10] = biological target: T3, Purified human GUCY2c ECD (recombinant, …); assay: ELISA; column 'Direct huGUCY2C binding (nM)'

- Kd [1]: 191 nM
- koff [1]: 0.00282 s⁻¹
- kon [1]: 14800 M⁻¹ s⁻¹
- Kd [2]: 60.4 nM
- koff [2]: 0.00284 s⁻¹
- kon [2]: 47300 M⁻¹ s⁻¹
- EC50 [3]: > 100 nM
- Kd [4]: 45.4 nM
- koff [4]: 0.002 s⁻¹
- kon [4]: 44100 M⁻¹ s⁻¹
- EC50 (Human GUCY2C ECD-muIgG2a): 4.05 nM
- Kd [5]: 2.64 nM
- koff [5]: 0.00112 s⁻¹
- kon [5]: 425000 M⁻¹ s⁻¹
- EC50 (Human CD3 epsilon-delta [7]): 1.13 nM
- Kd (Human CD3 epsilon-delta [8]): 2.17 nM
- koff (Human CD3 epsilon-delta [8]): 0.000861 s⁻¹
- kon (Human CD3 epsilon-delta [8]): 471000 M⁻¹ s⁻¹
B1: GUCY2C-0074 (bispecific antibody)
chain 1: DIVLTQSPASLAVSLGQRATISCRASESVDNYGISFMNWFQQKPGQPPKLLIYAASNPGSGVPARFSGSGSGTDFSLNIHPLEEDDTAMFFCQQSKEVPYTFGGGTKLEIKGGGSGGGGEVQLVESGGGLVQPGGSLRLSCAASGFTFSDYYMTWVRQAPGKGLEWVAFIRNRARGYTSDHNPSVKGRFTISRDNAKNSLYLQMNSLRAEDTAVYYCARDRPSYYVLDYWGQGTTVTVSSGCPPCPAPEAAGAPSVFLFPPKPKDTLMISRTPEVTCVVVDVSHEDPEVKFNWYVDGVEVHNAKTKPREEQYNSTYRVVSVLTVLHQDWLNGKEYKCKVSNKALPAPIEKTISKAKGQPREPQVCTLPPSREEMTKNQVSLWCLVKGFYPSDIAVEWESNGQPENNYKTTPPVLDSDGSFFLYSKLTVDKSRWQQGNVFSCSVMHEALHNHYTQKSLSLSPG
chain 2: DIVMTQSPDSLAVSLGERATINCKSSQSLFNVRSRKNYLAWYQQKPGQPPKLLISWASTRESGVPDRFSGSGSGTDFTLTISSLQAEDVAVYYCKQSYDLFTFGSGTKLEIKGGGSGGGGEVQLQQSGAELARPGASVNLSCKASGYTFTTYWMQWVKQRPGQGLEWIGAIYPGDGMTTYTQKFKDKATLTADKSSSTAYMQLSSLASEDSAVYYCVRKGMDYWGQGTSVTVSSGCPPCPAPEAAGAPSVFLFPPKPKDTLMISRTPEVTCVVVDVSHEDPEVKFNWYVDGVEVHNAKTKPREEQYNSTYRVVSVLTVLHQDWLNGKEYKCKVSNKALPAPIEKTISKAKGQPREPQVYTLPPCREEMTKNQVSLSCAVKGFYPSDIAVEWESNGQPENNYKTTPPVLDSDGSFFLVSKLTVDKSRWQQGNVFSCSVMHEALHNHYTQKSLSLSPG
notes: chimeric CD3-GUCY2c diabody-Fc, CD3-0004
- T84 tumor cell EC50 (T cell cytotoxicity, E:T 10:1) [6]: 2.6 nM

- EC50 [3]: 27.5 nM
- EC50 (Human GUCY2C ECD-muIgG2a): 7.5 nM
- Kd [9]: 160 nM
- koff [9]: 0.0224 s⁻¹
- kon [9]: 143000 M⁻¹ s⁻¹
- EC50 (Human CD3 epsilon-delta [7]): 0.887 nM
B2: GUCY2C-0077 (bispecific antibody)
chain 1: B1 chain 1 with Y32F, G33D, P58Q, L82M, F90Y
chain 2: DIVMTQSPDSLAVSLGERATINCKSSQSLFNVRSRKNYLAWYQQKPGQPPKLLISWASTRESGVPDRFSGSGSGTDFTLTISSLQAEDVAVYYCKQSYDLFTFGSGTKLEIKGGGSGGGGEVQLQQSGAELARPGASVKLSCKASGYTFTKYWMQWIKQRPGQGLEWIGAIYPGDGFTTYTQKFKGKATLTADKSSNTAYMQLSSLASEDSAVYYCARRNYGRTYGGDYWGQGTSVTVSSGCPPCPAPEAAGAPSVFLFPPKPKDTLMISRTPEVTCVVVDVSHEDPEVKFNWYVDGVEVHNAKTKPREEQYNSTYRVVSVLTVLHQDWLNGKEYKCKVSNKALPAPIEKTISKAKGQPREPQVYTLPPCREEMTKNQVSLSCAVKGFYPSDIAVEWESNGQPENNYKTTPPVLDSDGSFFLVSKLTVDKSRWQQGNVFSCSVMHEALHNHYTQKSLSLSPG
- T84 tumor cell EC50 (T cell cytotoxicity, E:T 10:1) [6]: 28.7 nM

- EC50 [10]: 5.14 nM
B3: GUCY2C-0179 (antibody, human IgG1, V domains shown)
VH: EVQLVESGGGLVQPGGSLRLSCAASGYSFTDYIMLWVRQAPGKGLEWIGNSNPYYGSTSYNLKFKGRFTISVDKAKNSAYLQMNSLRAEDTAVYYCARSGYYGSSPYWYFDVWGQGTMVTVSS
VL: DIQMTQSPSSLSASVGDRVTITCKSSQSLLYSSNQKNYLAWYQQKPGKSPKLLIYWASTRESGVPSRFSGSGSGTDFTLTISSLQPEDFATYYCQQYYSYPTFGGGTKVEIK

- EC50 [10]: 0.23 nM
B4: GUCY2C-0193 (antibody, human IgG1, V domains shown)
VH: EVQLVESGGGLVQPGGSLRLSCAASGYTFTSYWMHWVRQAPGKGLEWIGEIKPSNGLTNYIEKFKNRFTISVDKAKNSAYLQMNSLRAEDTAVYYCTRTITTTEGYWFFDVWGQGTLVTVSS
VL: DIQMTQSPSSLSASVGDRVTITCRASESVDYYGTSLMQWYQQKPGKAPKLLIYAASNVESGVPSRFSGSGSGTDFTLTISSLQPEDFATYYCQQTRKVYTFGQGTKLEIK

- EC50 [10]: 0.0693 nM
B5: GUCY2C-0166 (antibody, human IgG1, V domains shown)
VH: EVQLVESGGGLVQPGGSLRLSCAASGYTFTTYWMQWVRQAPGKGLEWIGAIYPGDGMTTYTQKFKDRFTISADKAKNSAYLQMNSLRAEDTAVYYCVRKGMDYWGQGTLVTVSS
VL: DIQLTQSPSSLSASVGDRVTITCRASESVDNYGISFMNWFQQKPGKAPKLLIYAASNPGSGVPSRFSGSGSGTDFTLTISSLQPEDFATYYCQQSKEVPYTFGQGTKLEIK
notes: human IgG1

- EC50 [3]: > 100 nM
- EC50 (Human GUCY2C ECD-muIgG2a): 2.48 nM
- Kd [9]: 26.1 nM
- koff [9]: 0.00386 s⁻¹
- kon [9]: 148000 M⁻¹ s⁻¹
- EC50 (Human CD3 epsilon-delta [7]): 0.418 nM
B6: GUCY2C-0104 (bispecific antibody)
chain 1: DIVMTQSPASLAVSLGQRATISCRASKGVTTSGYSYMHWYQQKPGQPPKLLIYLASNLESGVPARFSGSGSGTDFTLNIHPVEEEDAATYYCQHSREFPLTFGAGTKLELKGGGSGGGGEVQLVESGGGLVQPGGSLRLSCAASGFTFSDYYMTWVRQAPGKGLEWVAFIRNRARGYTSDHNPSVKGRFTISRDNAKNSLYLQMNSLRAEDTAVYYCARDRPSYYVLDYWGQGTTVTVSSGCPPCPAPEAAGAPSVFLFPPKPKDTLMISRTPEVTCVVVDVSHEDPEVKFNWYVDGVEVHNAKTKPREEQYNSTYRVVSVLTVLHQDWLNGKEYKCKVSNKALPAPIEKTISKAKGQPREPQVCTLPPSREEMTKNQVSLWCLVKGFYPSDIAVEWESNGQPENNYKTTPPVLDSDGSFFLYSKLTVDKSRWQQGNVFSCSVMHEALHNHYTQKSLSLSPG
chain 2: DIVMTQSPDSLAVSLGERATINCKSSQSLFNVRSRKNYLAWYQQKPGQPPKLLISWASTRESGVPDRFSGSGSGTDFTLTISSLQAEDVAVYYCKQSYDLFTFGSGTKLEIKGGGSGGGGEVQLQQSGAELVKPGASVKLSCTASGFNIKDTYIHWVKQRPEQGLEWIGRIDPANGNANYDPKFQGKATITADTSSNTAYLQLSSLTSEDTAVFYCSSLGTGTYWGQGTTLTVSSGCPPCPAPEAAGAPSVFLFPPKPKDTLMISRTPEVTCVVVDVSHEDPEVKFNWYVDGVEVHNAKTKPREEQYNSTYRVVSVLTVLHQDWLNGKEYKCKVSNKALPAPIEKTISKAKGQPREPQVYTLPPCREEMTKNQVSLSCAVKGFYPSDIAVEWESNGQPENNYKTTPPVLDSDGSFFLVSKLTVDKSRWQQGNVFSCSVMHEALHNHYTQKSLSLSPG
- T84 tumor cell EC50 (T cell cytotoxicity, E:T 10:1) [6]: 14.9 nM
